The assay addresses A/equine/NY/49/73 H7N7 hemagglutinin (crystallization construct) (influenza A virus A/equine/NY/49/73 (H7N7)). Briefly: SEC.

1 substance from paper PMC6750725 can be followed below.

As to “A/equine/NY/49/73 H7N7 hemagglutinin (crystallization construct) (natural protein)”, the stoichiometry N (usually the number of molecules, sites or subunits per partner or assembly) was found to be 3.
